# According to IntAct's records for PubMed 25613572:
# B1: Chromo domain-containing protein rhino (Drosophila melanogaster (Fruit fly)), Q7JXA8 (parent)
# chain: MSRNHQRPNLGLVDAPPNDHVEEYVVEKILGKRFVNGRPQVLVKWSGFPNENNTWEPLENVGNCMKLVSDFESEVFRLHRKAAAKSVGKSKSSPSSSGPLITENGPSSSKKTQQHSKSVQAKNTAGMSKMNQKKGKNIKKTAGKIKDIENYPKTQMPSTSQVSTDSTEVFDGNPSATTTNMIKSPRIQSLFSDLNLIEPTKDKDVGDTSLKTPPKSRRLIEFPQREDAPLSSKHVSPMLIRKESQPLQSSCTDDSDLGESSSSMSLPTVSSTSSEKSIKVTKSEPKTLGQIKFSSRSSDGGHAASSLGAPKEGDIGLDLSGSDSMDSEVESMRRCPRRKRKKTYPDWKFPEMTKPFGVNRGLDLDKILHCYQMNDDLFMFVTWKGCSSIDAVHINDIKEAYPLQIIKYFESLRIIVPK
# Variants of: B1
# Conditions: with h31_human H3C1, P68431
row,effect of a mutation on the interaction,Variant
1,disrupting interaction,F48A
2,disrupting interaction,W45A
3,decreasing interaction strength,F34A;F76A
